Biological target: mutant of SARS CoV-2 S protein (69del, 70del, Y144del, N501Y, A570D, D614G, P681H, T7161, S982A, D1118H) (Severe acute respiratory syndrome coronavirus 2, UniProt P0DTC2, A570D/D1118H/D614G/DEL144-144/N501Y/P681H/S982A/T716I)

212434 (NAAVLDIAQHSATEEIWWLPNLTKQQKVWFIMSLTQDPSVSKEVLGEAQKLNDSQAPK) [compound 212434]
binding affinity to mutant S protein (B.1.1.7), qualitative: showed binding affinity
